Results from article PMC5805349, “Recombinant expression, purification and biochemical characterization of kievitone hydratase from Nectria haematococca” (PLoS ONE, 2018).

What was measured:
FsKHS = molecular target: T1, FsKHS (Fusarium phaseoli, UniProt Q00870); assay: HPLC conversion assay with P. pastoris culture supernatant; format: biochemical; details: 2 mM kievitone, 35°C, culture supernatant of P. pastoris expressing FsKHS, mere turnover
T1 construct: gene khs; 19-residue signal peptide cleaved between Ala19 and Ser20; C-terminal His10 tag

[1] = tested on: COc1cc(O)c(CC=C(C)C)c(O)c1C(=O)/C=C/c1ccc(O)cc1; assay: purified protein; details: 50 mM sodium citrate, pH 6.0, 35°C, 2% v/v ethanol, 0.05 mg/mL enzyme, apparent because of low XN solubility, water is co-substrate

T1 sequence (Q00870 20-350): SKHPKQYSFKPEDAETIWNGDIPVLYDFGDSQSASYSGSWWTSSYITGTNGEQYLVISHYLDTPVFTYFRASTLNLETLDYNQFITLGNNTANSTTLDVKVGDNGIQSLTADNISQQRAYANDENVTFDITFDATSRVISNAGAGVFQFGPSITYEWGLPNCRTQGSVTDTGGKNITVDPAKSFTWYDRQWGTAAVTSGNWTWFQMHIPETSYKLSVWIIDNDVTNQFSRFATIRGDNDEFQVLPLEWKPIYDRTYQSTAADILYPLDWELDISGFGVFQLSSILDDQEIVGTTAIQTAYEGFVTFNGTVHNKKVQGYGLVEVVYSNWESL

Row | Compound | % substrate converted in 3 h (FsKHS) | Km [1] | kcat [1]
1 | CC(C)=CCc1c(O)cc(O)c2c1OCC(c1ccc(O)cc1O)C2=O (stereo not drawn) [KV, kievitone] | ~ 89% |  | 
2 | NhKHS (Fusarium vanettenii 77-13-4) |  | 980 ± 130 µM | 4.77 ± 0.33 s⁻¹
